Reference: patent publication EP4647443A1 (Max-Planck-Gesellschaft zur Förderung der Wissenschaften …, dated 2025)

T1: S. aureus gamma-hemolysin component C (HlgC) (Staphylococcus aureus, UniProt Q07227 30-315)
T1 sequence: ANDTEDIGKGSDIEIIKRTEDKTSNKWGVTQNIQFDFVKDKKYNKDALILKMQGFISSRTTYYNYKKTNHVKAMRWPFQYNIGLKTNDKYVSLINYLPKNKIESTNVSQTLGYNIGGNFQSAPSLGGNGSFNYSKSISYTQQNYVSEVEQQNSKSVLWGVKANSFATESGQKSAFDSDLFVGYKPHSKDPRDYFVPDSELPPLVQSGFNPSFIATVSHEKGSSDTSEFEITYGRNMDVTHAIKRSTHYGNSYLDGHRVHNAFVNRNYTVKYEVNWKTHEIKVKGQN

T2: S. aureus gamma-hemolysin component A (HlgA) (Staphylococcus aureus, UniProt P0A071 30-309)
T2 sequence: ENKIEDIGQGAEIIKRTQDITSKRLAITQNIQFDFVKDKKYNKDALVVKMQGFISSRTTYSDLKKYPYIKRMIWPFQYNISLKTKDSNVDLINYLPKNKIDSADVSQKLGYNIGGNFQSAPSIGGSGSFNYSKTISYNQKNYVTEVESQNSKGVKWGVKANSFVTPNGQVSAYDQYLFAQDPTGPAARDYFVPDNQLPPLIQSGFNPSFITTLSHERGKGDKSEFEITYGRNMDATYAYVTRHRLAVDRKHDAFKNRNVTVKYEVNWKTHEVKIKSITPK

T3: S. aureus gamma-hemolysin component B (HlgB) (Staphylococcus aureus, UniProt P0A075 27-325)
T3 sequence: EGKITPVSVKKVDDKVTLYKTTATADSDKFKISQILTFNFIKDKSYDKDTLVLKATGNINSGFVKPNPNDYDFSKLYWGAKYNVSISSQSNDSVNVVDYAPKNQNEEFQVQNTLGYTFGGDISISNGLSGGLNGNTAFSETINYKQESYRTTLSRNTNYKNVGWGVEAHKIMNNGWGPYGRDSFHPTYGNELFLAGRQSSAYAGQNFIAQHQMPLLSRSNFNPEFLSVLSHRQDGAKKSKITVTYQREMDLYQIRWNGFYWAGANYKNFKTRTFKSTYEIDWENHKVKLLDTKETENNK

B1: Bm32B07 (VHH)
VHH: QVQLVESGGGLVQTGGSLRLSCATSGRISSIYAMPWFRQAPGKEREFVAAISWHTDLAYYADSVKGRFTISKDNAKNTVYLQMNSLKPEDTAVYYCNIPSKEEYDRNYYYPTGGSWGQGTQVTVSS
B2: Bm32A03 (VHH)
VHH: QVQLVESGGALVQTGGSLRLSCVTSGSISSIYAMPWFRQAPGKEREFVAAISWHTNLAYYADSVKGRFTISKDNAKNTVYLQMDSLKPEDTATYYCNVPSKEEYDRTSYYPTGGSWGQGTQVTVSS
B3: Bm32D01 (VHH)
VHH: QVQLVESGGGLVQTGGSLRLSCATSGRISSIYAMPWFRQAPGKEREFVAAISWHTDLTYYADSVKDRFTISKDNAKATVYLQMNNLQPEDTAVYYCNVPSKEQYDRTSYYPTGGSWGQGTQVTVSS
B4: Bm32A08 (VHH)
VHH: QVQLVESGGGLVQAGGSLRVSCAASGDWFIINSMAWFRQAPGKQREQVATISHGGIPRYADSVKGRFTISRDNSKGAVYLQMNNLKSDDTAMYVCAAGGLDYGFPDPTPEEFDYWGRGTQVTVSS
B5: Bm32F03 (VHH)
VHH: QVQLVESGGGLVQAGGSLRVSCAASGDWFIINSMAWFRQAPGKQREQVATISHGGIPRYADSVKGRFTISRDDSKDAVYLQMNNLKSDDTAMYVCAAGGLDYGFPDPTPEEFDYWGRGTQVTVSS
B6: Bm31A04 (VHH)
VHH: QVQLVQSGGGLVQPGGSLRLSCAASESISNIYVMGWFRQAPGKQRELVAAITSSNNTNYADSVKGRFTISRDNAKNTVYLQMNSLKPEDTAVYYCNADWGLGGYSDYGEYDYWGQGTQVTVSS
B7: Bm31G04 (VHH)
VHH: QVQLVESGGGLVQPGGSLRLSCAASGITFTFYDMGWYRQAPGKQRELVATISISSSTTYADSVKGRFTISRDNAKNTVYLQMNSLKPEDTAVYYCNAQHVDSDYLAGYDYFGQGTQVTVSS
B8: Bm31D04 (VHH)
VHH: QVQLVESGGGLVQPGGSLRLSCAASGIIFDFYDMGWYRQAPGKQRELVAGISISGSTTYADSVKGRFTISRDNAKNTIYLQMNSLKPEDTAVYYCNAHHVDSDYLRGYDYFGQGTQVTVSS
B9: Bm31G03 (VHH)
VHH: QVQLVESGGGLVQAGGSLRLSCAASGIIFSFYDMGWYRQAPGKQREVVATISISGRTTYADSVKGRFTISRDDAKNTVYLQMNSLKPEDTAVYICNAQHVDSDYLAGYDYFGQGTQVTVSS
B10: Bm31A09 (VHH)
VHH: QVQLVQSGGGLVQAGGSLRLSCAASGSTGSIYVMGWFRQAPGKQRELVASITRGEGSANYADSVKGRFTISRDNAKNTLYLQMNSLKPEDTAVYYCHADTGLGDYSDYAPHGYKYDYWGQGTQVTVSS
B11: Bm31D02 (VHH)
VHH: QVQLVESGGGLVQAGGSLRLSCAASGSTGSIYVMGWFRQAPGKQRELVASITRGEGSANYADSVKGRFTISRDNAKNTLYLQMNSLKPEDTAVYYCHADTGLGDYSDYAPHGYKYDYWGQGTQVTVSS
B12: Bm31B04 (VHH)
VHH: QVQLVESGGGLVQPGGSLRLSCAASGSSFSIYGMSWYRQAPGNQRELVALINVGDWTTYADSVKGRFTISRDSAKNTVYLQMNSLKPEDTAVYYCKADLSVSGSSFIRTYWGQGTQVTVSS
B13: Bm31F09 (VHH)
VHH: QVQLVESGGALVQPGGSLRLSCAASGFTFDDYVMSWVRQAPGTGLEWVSSIHTASSDTYYADSVKDRFTISTDNAKNTLYLQMNSLKPEDTAVYYCAADKAPLTIATMTRDEYDYWGQGTQVTVSS
B14: Bm31G12 (VHH)
VHH: QVQLVESGGGLVQPGGSLRLSCAAAGFTVDDYVMSWVRQVPGKGREWVSSIHSYSSDTYYADSVKGRFTISTDNAKNTLYLQMNSLKPEDTAVYYCAADKDPLTIATMTRYEYDYWGQGTQVTVSS
B15: Bm31A08 (VHH)
VHH: QVQLVESGGGLAQPGGSLTLSCAASGVVWSKYVMSWVRQVPEKGFEWVSGIKSDGSDTYYADSVKGRFTVSGDLAKKTVYLQLNSLKPEDTALYYCVLEYGTSWPPRVEEYDYWGQGTQVTVSS
B16: Bm29D07 (VHH)
VHH: QVQLVESGGGLVQPGGSLRLSCTASSIIVSYYAIGWFRQAPGKGREGVSRITVPAGNLYYADSVKGRFSITRDDVKNTVYLQMNSFQVEDTATYYCAVSYGDSWVDPSYVDHWGQGIQVTVSS
B17: Bm29B04 (VHH)
VHH: QVQLVESGGGLVQAGGSLRLSCAASGFTFDDYVIGWFRQAPGKEREAVACISNGDGVANVPNSMKGRFTISSDSAKNTVHLRADSLKADDTGVYYCAAVKERLCVHEGMEYWGKGTQVTVSS
B18: Bm29B05 (VHH)
VHH: QVQLVESGGGLVQAGGSLRLSCAASGFTFDDYVIGWFRQAPGKEREAVACISNGDGVTNYPNSMRGRFTISSDSAKNTVYLQTDSLKPDDTGVYYCATAKERLCVQGGMEYWGKGTLVTVSS
B19: Bm29H04 (VHH)
VHH: QVQLVESGGGLVQPGGSLRLSCTASGVSLDDFAIGWFRQAPGKEREGVSCSSSRDRSEYYRDSVKGRFTISRDSQKNTVDLQMNSLTIEDTAVYYCAADPQPYPCSVGSLDRYNSWGQGTLVTVSS
B20: Bm29E06 (VHH)
VHH: QVQLVESGGGLVQPGGSLRLSCTASGVSLYDFAVGWFRQAPGKEREGVSCSSSRDRSEYYRDSVKGRFDIVRDNLKNIIYLQMDNLTIEDTAVYFCAADSQPYPCSLGSLERYDSWGQGTQVTVSS
B21: Bm29F05 (VHH)
VHH: QVQLVESGGGLVQPGGSLRLSCTASGVSLYDFAVGWWRQAPGKEREGVSCTSSRDRSEYYRDSVKGRFTIVRDNLKNTIYLQMDSLTIEDTAVYFCAADSQPYPCSLGSLERYDSWGQGIQVTVSS
B22: Bm29C02 (VHH)
VHH: QVQLVESGGGLVQPGGSLRLSCTASGFTLDDWAIGWFRQAPGKEREGVSCTSSRERSSYYRDSVKGRFTISRDSTSNTVYLQMNELTLEDTAVYYCAADPQPYPCSLGQLGRYTTWGQGTQVTVSS
notes: also called anti-HlgB VHH Bm29C02

Target: T1, S. aureus gamma-hemolysin component C …
Test: BLI, biotinylated VHH on streptavidin sensor, HlgC in solution

Binder | Kd [pM]
B1 | 45
B2 | 25
B3 | 30
B4 | 45
B5 | 850

Target: T2, S. aureus gamma-hemolysin component A …
Test: BLI, biotinylated VHH on streptavidin sensor, HlgA in solution

Binder | Kd [pM]
B6 | 60
B7 | 25
B8 | 50
B9 | 15
B10 | 50
B11 | 70
B12 | ≤ 10
B13 | 90
B14 | 25
B15 | ≤ 10

Target: T3, S. aureus gamma-hemolysin component B …
Test: BLI, biotinylated VHH on streptavidin sensor, HlgB in solution

Binder | Kd [pM]
B16 | ≤ 10
B17 | ≤ 10
B18 | ≤ 10
B19 | 60
B20 | 30
B21 | 20
B22 | 10
